Measured values: patent US20220204627A1 (WILLIAM ROBERT ARATHOON LIVING TRUST DATED AUGUST 29 2016, published 2022)

Key:
[1] = target: T1, human CD47-Fc fusion protein (R&D systems) (human, UniProt Q08722 19-141); test: ELISA, binding to CD47; design: Bmax: unit not given here
T1 construct: Bought (R&D systems); also called Fc-tagged CD47; not shown: Fc part of the bought fusion protein

[2] = target: T2, human P Glycoprotein (Pgp) / Multidrug resistance protein 1 (MDR1), gene ABCB1, on cells (human, UniProt P08183 1-1280); test: cell-based or functional assay
[3] = target: T2, human P Glycoprotein (Pgp) / Multidrug …; test: FACS on 293T-B1OX cells (overexpressing MDR1)
[4] = target: T2, human P Glycoprotein (Pgp) / Multidrug …; test: flow cytometry on 293T cells stably expressing human ABCB1 (293T_ABCB1_OX)
[5] = target: T1, human CD47-Fc fusion protein (R&D …); test: ELISA, binding to CD47; 15D3 HC with its own 15D3 LC (un-swapped control); ELISA
[6] = target: T3, EGFR on 293T cells overexpressing EGFR (UniProt P00533 25-1210, limits assumed); test: FACS on 293T-EGFR OX cells
T3 construct: whole, on cells

[7] = target: T3, EGFR on 293T cells overexpressing EGFR; test: FACS on 293T cells overexpressing EGFR
[8] = target: T1, human CD47-Fc fusion protein (R&D …); test: ELISA, plate coated with human CD47-Fc; design: Bmax: unit not given here
[9] = target: T4, human CD47 on cells (human, UniProt Q08722 19-323); test: flow cytometry on human red blood cells (h408 RBC), Alexa Fluor 647 channel
T4 construct: also called KT14 (target name); leukocyte surface antigen CD47

[10] = target: T5, cynomolgus CD47 on erythrocytes (cynomolgus, UniProt A0A5F8AK49 19-323 (rhesus entry)); test: flow cytometry on cynomolgus red blood cells (cy807 RBC), Alexa Fluor 647 channel
T5 construct: whole, on cells; also called cynomolgus RBCs

[11] = target: T4, human CD47 on cells; test: flow cytometry on 293T_ABCB1_OX cells (anti-CD47 antibody; CD47 is endogenous on 293T cells); 293T_ABCB1_OX cells, endogenous CD47

B1: anti-MDR1 antibody 15D3 (recombinant, human IgG1/Kappa) (antibody, V domains shown)
VH: EVKVVESGGVLVRPGGSLKLSCAASGFTFSRYTMSWVRQTPEKRLEWVATISSGGGNTYYPDSVKGRFTVSRDNAMSSLYLQMSSLRSEDTALYYCARYGAGDAWFAYWGQGTLVTVSA
VL: DVLMTQTPLSLPVSLGDQASISCRSSQSIVHSTGNTYLEWYLQKPGQSPKLLIYKVSNRFSGVPDRFSGSGSGTDFTLKISRLEAEDLGVYYCFQGSHFPRTFGGGTRLEIK
notes: also called 15D3/15D3
[1]
  Bmax: 3.2
[2]
  Vincristine IC50 (nM) on N6/ADR cells with antibody at 50 ug/mL: 0.466 nM
[3]
  EC50: 25.1 nM
[4]
  EC50: 14.6 nM
[5]
  Kd: 10.9 nM

B2: anti-EGFR antibody necitumumab (antibody, human IgG1, kappa, V domains shown)
VH: QVQLQESGPGLVKPSQTLSLICTVSGGSISSGDYYWSWIRQPPGKGLEWIGYIYYSGSTDYNPSLKSRVTMSVDTSKNQFSLKVNSVTAADTAVYYCARVSIFGVGTFDYWGQGTLVTVSS
VL: EIVMTQSPATLSLSPGERATLSCRASQSVSSYLAWYQQKPGQAPRLLIYDASNRATGIPARFSGSGSGTDFTLTISSLEPEDFAVYYCHQYGSTPLTFGGGTKAEIKR
notes: Heavy chain copied as printed in T0103; also called KT3-2
[6]
  EC50: 0.13 nM
[7]
  EC50: 0.044 nM

B3: anti-CD47 antibody 5F9 (antibody, human IgG1, V domains shown)
VH: QVQLVQSGAEVKKPGASVKVSCKASGYTFTNYNMHWVRQAPGQRLEWMGTIYPGNDDTSYNQKFKDRVTITADTSASTAYMELSSLRSEDTAVYYCARGGYRAMDYWGQGTLVTVSS
VL: DIVMTQSPLSLPVTPGEPASISCRSSQSIVYSNGNTYLGWYLQKPGQSPQLLIYKVSNRFSGVPDRFSGSGSGTDFTLKISRVEADVGVYYCFQGSHVPYTFGQGTKLEIK
notes: Variable regions cloned on human IgG1 / human kappa constant regions; also called 5F9/5F9; KT14
[8]
  Bmax: 2.78
  Kd: 0.00197 nM
[9]
  R4 (percent of red blood cells in the positive gate R4): 99.9%
[10]
  R4 (percent of red blood cells in the positive gate R4): 99.8%
[11]
  EC50: 0.3 nM
